B1: polyA 6mer (ssDNA)
DNA: AAAAAA
B2: polyG 6mer (ssDNA)
DNA: GGGGGG
B3: polyT 6mer (ssDNA)
DNA: TTTTTT
B4: polyC 6mer (ssDNA)
DNA: CCCCCC

The series addresses T1, Npl3 RRM1 (Saccharomyces cerevisiae, UniProt Q01560 114-201).
T1 sequence: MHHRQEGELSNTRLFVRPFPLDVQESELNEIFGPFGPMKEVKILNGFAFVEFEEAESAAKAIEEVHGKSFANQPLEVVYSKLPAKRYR
The series is described as follows: NMR titration.
Take B1: the binding result was “no binding”.
Turning to B2, the binding result was “no binding”.
Next, B3: “no binding”; B4: “binds”.

The record behind these values is article doi:10.1101/2022.05.24.493251.
